What was measured:
Experiment in all cases: SPR
pPGT121 = target: pPGT121
pPGT121-YTE = target: pPGT121-YTE
pVRC07-523-LS = target: pVRC07-523-LS
pPGT121-LS = target: pPGT121-LS

Measured: Kd

Rhesus macaque FcγR IIb-1 (receptor)
> 20 µM: pPGT121 | pPGT121-YTE | pVRC07-523-LS | pPGT121-LS

Rhesus macaque FcγR IIIa-3 (from UniProt A3RFZ7 21-254) (receptor)
> 20 µM: pPGT121 | pPGT121-YTE | pVRC07-523-LS | pPGT121-LS

Rhesus macaque FcγR IIa-2 (receptor)
> 20 µM: pPGT121 | pPGT121-YTE | pVRC07-523-LS | pPGT121-LS

Rhesus macaque FcγR IIIa-1 (from UniProt A3RFZ7 21-254) (receptor)
> 20 µM: pPGT121 | pPGT121-YTE | pVRC07-523-LS | pPGT121-LS

Rhesus macaque FcγR IIa-4 (receptor)
> 20 µM: pPGT121 | pPGT121-YTE | pVRC07-523-LS | pPGT121-LS

— PMC10127586
